The target in test [1] is T1, human CSF-1R fragment D1-D3 (human, UniProt P07333 20-311).
T1 construct: Subcloned into pCMV-presS-HisAvitag expression vector
As to the kind of experiment: SPR Biacore T100, 37°C; antibody captured, D1-D3 injected, single cycle kinetics. The method, then: Antibodies against CSF-1R were captured via amine coupled capture molecules. Using the single cycle kinetics five increasing concentrations of human CSF-1R fragment D1-D3 (SEQ ID NO: 66) were injected. Human CSF-1R fragment D1-D3 was subcloned into pCMV-presS-HisAvitag expression vector.
Single Cycle Kinetics was measured at a flow rate of 30 μL/min by five consecutive injections of the analyte with concentrations, c=7.8, 31.25, 125 500 and 2000 nM, without regeneration. Each injection was 30 seconds long and followed by a dissociation phase of 120 Seconds for the first four injections, and finally 1200 seconds for the highest concentration (=last injection).
Kinetic parameters were calculated by using the usual double referencing (control reference: binding of analyte to capture molecule; Flow Cell: subdomain CSF-1R concentration “0” as Blank) and calculation with model ‘titration kinetics 1:1 binding with draft’.

In test [2] the target is CSF-1R on cynomolgous monocytes (cynomolgous). As to the kind of experiment: cell-based or functional assay.

Positions count from the first letter of the chain named.

T1 sequence (P07333 20-311 limits assumed): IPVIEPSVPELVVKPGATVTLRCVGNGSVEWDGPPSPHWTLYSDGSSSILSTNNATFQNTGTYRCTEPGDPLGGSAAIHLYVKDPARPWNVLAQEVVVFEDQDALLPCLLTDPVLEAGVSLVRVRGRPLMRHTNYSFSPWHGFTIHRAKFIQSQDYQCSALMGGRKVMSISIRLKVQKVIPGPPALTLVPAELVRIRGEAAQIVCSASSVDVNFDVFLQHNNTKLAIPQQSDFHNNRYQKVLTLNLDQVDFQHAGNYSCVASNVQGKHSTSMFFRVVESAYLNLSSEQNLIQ

B1: Mab 2F11 (antibody, V domains shown)
VH: QVQLKESGPGLVAPSQSLSITCTVSGFSLTTYDISWIRQSPGKGLEWLGVIWTDGGTNYNSPFMSRLSIRKDNSKSQVFLKMNRLQTDDTAIYYCVRDQRLYFDVWGAGTTVTVSS
VL: NIVMTQSPKSMSMSVGERVTLNCKASEDVNTYVSWYQQQPEQSPKLLIYGASNRYTGVPDRFTGGGSTTDFTLTISSVQAEDLADYFCGQSFSYPTFGTGTKLEIK
notes: Murine monoclonal antibody from hybridoma; also called muMab 2F11
Consider B1, for which, in test [1], the binding result was “no binding (tested: up to 2000 nM D1-D3)”. In addition, in test [2], the “% inhibition (of survival) = (100% - % survival), cynomolgous monocytes, 5 µg/ml antibody” value (“% inhibition (of survival) =” below) came out at 96% and the “% survival of cynomolgous monocytes at 5 µg/ml antibody (150 ng/ml huCSF-1, CellTiterGlo)” value (“% survival of cynomolgous monocytes” below) came out at 4%.

B2: Mab 1G10 (antibody, V domains shown)
VH: B1 VH with Q1R, T31S, T53S, D54G, S68R, R70S, N73D, K75R, M82V, Q99L
VL: KIVMTQSPKSMSVSVGERVSLSCKASEDVGTYVSWYQQKPEQSPKLLIYGSSNRYTGVPDRFTGSGSATDFTLTISSVQAEDLADYSCGQSFTYPTFGTGTKLEIK
notes: Murine monoclonal antibody
Consider B2, for which the binding result in test [1] is “no binding (tested: up to 2000 nM D1-D3)”. Further, in test [2], the “% inhibition (of survival) =” value worked out at 98% and the “% survival of cynomolgous monocytes” value came out at 2%.

B3: Mab 2E10 (antibody, V domains shown)
VH: QVQLKESGPGLVAPSKSLSITCTVSGSSLDSFDISWIRQSPGKGLEWLGVIWTGGGTNYNSGFMSRLRITKDNSKSQVLLKMNSLQSDDTAIYYCVRDPRLYFDVWGAGTTVTVSS
VL: B1 VL with N22S, N30V, Q39K, E41D, G65S, T68A, F87Y, S91T
notes: Murine monoclonal antibody
Consider B3, for which the binding result in test [1] was “no binding (tested: up to 2000 nM D1-D3)”. Also, in test [2], the “% inhibition (of survival) =” value is 83% and the “% survival of cynomolgous monocytes” value worked out at 17%.

B4: Mab 2H7 (antibody, V domains shown)
VH: B3 VH with S40P, T70S, L79F, N83S
VL: B1 VL with N22S, N30V, Q39K, G65S, T68A, V78I, F87Y, S91T
notes: Murine monoclonal antibody
Consider B4, for which, in test [2], the “% inhibition (of survival) =” value was 92% and the “% survival of cynomolgous monocytes” value is 8%.

The values are drawn from patent US20140079706A1 (published 2014).
